Experimental data as given in the supplement of paper PMC9170038.

Tested on: MS2 coat protein
Assay: apparent KD of MS2 coat protein; designed switch direction (-1 OFF switch, 1 ON switch): -1; higher = weaker reporter binding
Summary of the method: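 On Illumina chips, designed RNA switches with common flanks were made by stalled E. coli RNA polymerase. Titrations with SNAP-549-labelled MS2 coat protein, doubling from 0.7 or 1.5 nM to 3 µM, were done with no input, with 200 uM small-molecule ligand, or with an oligonucleotide input. Apparent KD is the median per design over clusters, from curve fits of normalised cluster fluorescence.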

[1] = input ligand: microRNA oligo, concentration not stated
[2] = Eterna round: R95, input ligand: FMN 200 uM
[3] = Eterna round: R95, input ligand: microRNA oligo, concentration not stated
[4] = Eterna round: R95, input ligand: none

Sequence | apparent KD of MS2 coat protein (input ligand: FMN 200 uM) | apparent KD of MS2 coat protein [1] | apparent KD of MS2 coat protein (input ligand: none) | apparent KD of MS2 coat protein [2] | apparent KD of MS2 coat protein [3] | apparent KD of MS2 coat protein [4]
AGUACUAUCACGAAAGUGAUAGUACAAAUAGCAAGUGAAACAUGAGGAUCACCCAUGUCCUCAUUUGCUCGUCUUAU [Mat - Sensor v2 -ver2- JL mod - D65] (Eterna round: R96, puzzle: Sensor v2, turn-off variant 2) | 12.1 nM | 409 nM | 14.3 nM | – | – | –
AGUACUAUGCGAGCUGACUUGCGUAGUGCAGCAAGUGAAACAUGAGGAUCACCCAUGUCCUCAUUUGCUCGUCUUAU [Mat - Sensor v3 - Turn-off var 2 - D1] (Eterna round: R96, puzzle: Sensor v3, turn-off variant 2) | 31.1 nM | 662 nM | 34.1 nM | – | – | –
AGUACUAUGCGAGCUGACUUGCGUAGUGCAGCAAGUGAAACAUGAGGAUCACCCAUGUCCUCAUUUGCUCGUCUUAU [Mat - Sensor v3 - Turn-off var 2 - D1] (puzzle: Sensor v3, turn-off variant 2) | – | – | – | 35.3 nM | 453 nM | 30.8 nM
AGUACUCACACGAAAGUGUUAGUACAAUAAGCUUGUGAAACAUGAGGAUCACCCAUGUCCUCAUAAGCUCGUCUUAU [salish99_TOv2_r3_018] (Eterna round: R96, puzzle: Sensor v3, turn-off variant 2) | 16.2 nM | 430 nM | 18.1 nM | – | – | –
AGUACUCACACGAAAGUGUUAGUACAAUAAGCUUGUGAAACAUGAGGAUCACCCAUGUCCUCAUAAGCUCGUCUUAU [salish99_TOv2_r3_018] (puzzle: Sensor v3, turn-off variant 2) | – | – | – | 17.6 nM | 1380 nM | 17.1 nM
AGUACUGACACGAAAGUGUUAGUACAAUAAGCUUGUGAAACAUGAGGAUCACCCAUGUCCUCAUAAGCUCGUCUUAU [salish99_TOv2_r3_017] (Eterna round: R96, puzzle: Sensor v3, turn-off variant 2) | 15.9 nM | 469 nM | 17.9 nM | – | – | –
AGUACUGACACGAAAGUGUUAGUACAAUAAGCUUGUGAAACAUGAGGAUCACCCAUGUCCUCAUAAGCUCGUCUUAU [salish99_TOv2_r3_017] (puzzle: Sensor v3, turn-off variant 2) | – | – | – | 16 nM | 1200 nM | 13.8 nM
AGUACUGGCGCGUCGGUGUUGGUACAAUAAGCUUGUGAAACAUGAGGAUCACCCAUGUCCUCAUAAGCUCGUCUUAU [salish99_TOv2_r2_083] (puzzle: Sensor v3, turn-off variant 2) | – | – | – | 16.9 nM | 600 nM | 16.5 nM
AGUACUUACUCGAUAGUGUUAGUACAAUAAGCUUGUGAAACAUGAGGAUCACCCAUGUCCUCAUUAGCUCGUCUUAU [salish99_TOv2_r3_1006] (puzzle: Sensor v3, turn-off variant 2) | – | – | – | 206 nM | 758 nM | 199 nM
AGUACUUUCACGAAAGUGAAAGUACAAAUGAGCUUUUGAACAUGAGGAUCACCCAUGUCCUCAUAAGCUCGUCUUAA [Mat - Sensor v2 - var 2 - Mod - D175] (Eterna round: R96, puzzle: Sensor v2, turn-off variant 2) | 28.3 nM | 458 nM | 30.7 nM | – | – | –
AGUAGAUCUACGCUUGCGUGGAUCUGCUAUGCAGGUGUUACAUGAGGAUCACCCAUGUCCUCAUUUGCUCGUCUUAU [JL turnoff v2 99.14] (puzzle: Sensor v3, turn-off variant 2) | – | – | – | 133 nM | 356 nM | 138 nM
AGUAGUUACGCAGGAUAUGAGGAUCACCCAUAGAAGGAUAUCGAAAGAGAAGGUCUGAGGAUUACCCAGAAGGGCGUGACUACA [pwkr exNG2 2xF5 2xFMN.5] (Eterna round: R96, puzzle: Exclusion NG 2) | 647 nM | 113 nM | 136 nM | – | – | –
